Source: publication PMC11100808

Biological target: biotinylated human CK1δ catalytic domain (CK1δ ΔC) (human) (UniProt P48730)
Assay: BLI

LIN-42 CK1BD + Tail (from UniProt Q65ZG8 402-597) (domain or fragment)
Kd: 209 nM
